The nature of series [1]: flow cytometry, mean YFP fluorescence, stable HepG2. The settings on record: glycan lost.
The nature of series [2]: confocal imaging, transiently transfected HepG2. Conditions: glycan lost; control: untreated.
The nature of series [3]: confocal imaging, apical targeting, polarized MDCK cells. The settings on record: glycan lost; control: wild-type hSVCT1-YFP.
Series [4] is described as follows: confocal imaging, cell surface targeting, stable HepG2. Conditions: glycan lost; control: wild-type hSVCT1-YFP.
The nature of series [5]: [14C]-ascorbic acid uptake, stable HepG2 cells. Conditions: glycan lost; control: wild-type hSVCT1-YFP.

Take hSVCT2: N188Q: the expression_or_secretion result in series [1] (control: wild-type hSVCT2-YFP) is “decreases”. Take hSVCT2: N188/N196Q: the expression_or_secretion entry in series [1] (control: wild-type hSVCT2-YFP) was “decreases”.

Regarding hSVCT1: tunicamycin, the localisation_or_trafficking result in series [2] is reported as “decreases”. The expression_or_secretion result in series [1] (control: untreated) is reported as “decreases”.

For hSVCT2: tunicamycin, the localisation_or_trafficking entry in series [2] was “no change”. In series [1] (control: untreated), the expression_or_secretion result is “decreases”. hSVCT1: N138Q/N144Q: the localisation_or_trafficking entry in series [3] is on record as “decreases”. Turning to hSVCT1: N144Q, the localisation_or_trafficking result in series [3] and in series [4] was “no change” throughout. The “other: transport activity” value in series [5] was “decreases”. The expression_or_secretion result in series [1] (control: wild-type hSVCT1-YFP) is listed as “no change”. For the substance hSVCT1: N138Q, the localisation_or_trafficking entry in series [3] and in series [4] was “decreases” each time. For the same substance, the expression_or_secretion entry in series [1] (control: wild-type hSVCT1-YFP) was “decreases”. For hSVCT2: N196Q, the expression_or_secretion entry in series [1] (control: wild-type hSVCT2-YFP) is “decreases”. Turning to hSVCT1: N138/N144Q, the expression_or_secretion result in series [1] (control: wild-type hSVCT1-YFP) was “decreases”.

For the origin of these results see PMC2528843.
